Measurements taken from the supplement of paper PMC10567573.

B1: TRIM55 (parent)
chain: YKSFSKEQQTMDNLEKQLICPICL
B2: TRIM55 (parent)
chain: ICPICLEMFTKPVVILPCQHNLCR

Variants of: B1
Experiment: protein stability index of a GFP-peptide fusion (GPS, HEK-293T) (PSI 1-6); higher = more stable
Settings: c terminus: a fixed tail appended
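Further: lentivirally expressed fusions sorted by FACS into six bins by GFP to DsRed ratio, PSI derived from sequencing read proportions per bin multiplied by bin number.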

First: YKSFSKEQQTMDNLEKQLICPIWL [C23W]
Second: YKSFSKEQQTMDNLEKQLICPIYL [C23Y]
The protein stability index of the first is lower: 1.65 for the first, 2.04 for the second.

Compared with YKSFSKEQQTMDNLEKQLICPICA [L24A], YKSFSKEQQTMDNLEKQLICPICC [L24C] is higher in protein stability index: 1.92 for the first, 2.07 for the second.

Compared with YKSFSKEQQTMDNLEKQLICPICD [L24D], YKSFSKEQQTMDNLEKQLICPICE [L24E] is higher in protein stability index: 2 for the first, 2.13 for the second.

First: YKSFSKEQQTMDNLEKQLICPICF [L24F]
Second: YKSFSKEQQTMDNLEKQLICPICG [L24G]
The protein stability index of the first is lower: 2.15 for the first, 2.46 for the second.

Going from YKSFSKEQQTMDNLEKQLICPICH [L24H] to YKSFSKEQQTMDNLEKQLICPICI [L24I], the protein stability index rises from 2.5 to 2.7.

Compared with YKSFSKEQQTMDNLEKQLICPICK [L24K], YKSFSKEQQTMDNLEKQLICPICM [L24M] is lower in protein stability index: 2.63 for the first, 2.33 for the second.

Compared with YKSFSKEQQTMDNLEKQLICPICN [L24N], YKSFSKEQQTMDNLEKQLICPICP [L24P] is higher in protein stability index: 2.46 for the first, 3.03 for the second.

First: YKSFSKEQQTMDNLEKQLICPICQ [L24Q]
Second: YKSFSKEQQTMDNLEKQLICPICR [L24R]
The protein stability index of the first is lower: 2.22 for the first, 2.31 for the second.

Compared with YKSFSKEQQTMDNLEKQLICPICS [L24S], YKSFSKEQQTMDNLEKQLICPICT [L24T] is lower in protein stability index: 2.13 for the first, 1.98 for the second.

First: YKSFSKEQQTMDNLEKQLICPICW [L24W]
Second: YKSFSKEQQTMDNLEKQLICPICY [L24Y]
The protein stability index of the first is lower: 2.37 for the first, 2.88 for the second.

Variants of: B2
Experiment: as above
Settings: c terminus: a fixed tail appended

Going from ACPICLEMFTKPVVILPCQHNLCR [I1A] to CCPICLEMFTKPVVILPCQHNLCR [I1C], the protein stability index falls from 2.56 to 2.36.

Compared with DCPICLEMFTKPVVILPCQHNLCR [I1D], ECPICLEMFTKPVVILPCQHNLCR [I1E] is higher in protein stability index: 2.75 for the first, 2.85 for the second.

Compared with FCPICLEMFTKPVVILPCQHNLCR [I1F], GCPICLEMFTKPVVILPCQHNLCR [I1G] is lower in protein stability index: 2.58 for the first, 2.46 for the second.

First: HCPICLEMFTKPVVILPCQHNLCR [I1H]
Second: KCPICLEMFTKPVVILPCQHNLCR [I1K]
The protein stability index of the first is lower: 2.62 for the first, 2.75 for the second.

First: LCPICLEMFTKPVVILPCQHNLCR [I1L]
Second: MCPICLEMFTKPVVILPCQHNLCR [I1M]
The protein stability index of the first is higher: 2.72 for the first, 2.44 for the second.

First: NCPICLEMFTKPVVILPCQHNLCR [I1N]
Second: PCPICLEMFTKPVVILPCQHNLCR [I1P]
The protein stability index of the first is higher: 2.55 for the first, 2.19 for the second.

Going from QCPICLEMFTKPVVILPCQHNLCR [I1Q] to RCPICLEMFTKPVVILPCQHNLCR [I1R], the protein stability index falls from 3.01 to 2.75.

Compared with SCPICLEMFTKPVVILPCQHNLCR [I1S], TCPICLEMFTKPVVILPCQHNLCR [I1T] is lower in protein stability index: 2.72 for the first, 2.51 for the second.

Going from VCPICLEMFTKPVVILPCQHNLCR [I1V] to WCPICLEMFTKPVVILPCQHNLCR [I1W], the protein stability index rises from 2.4 to 2.59.

First: YCPICLEMFTKPVVILPCQHNLCR [I1Y]
Second: IAPICLEMFTKPVVILPCQHNLCR [C2A]
The protein stability index of the first is lower: 1.92 for the first, 2.31 for the second.

First: IDPICLEMFTKPVVILPCQHNLCR [C2D]
Second: IEPICLEMFTKPVVILPCQHNLCR [C2E]
The protein stability index of the first is lower: 1.96 for the first, 2.05 for the second.

First: IFPICLEMFTKPVVILPCQHNLCR [C2F]
Second: IGPICLEMFTKPVVILPCQHNLCR [C2G]
The protein stability index of the first is higher: 2.02 for the first, 1.77 for the second.

Compared with IHPICLEMFTKPVVILPCQHNLCR [C2H], IIPICLEMFTKPVVILPCQHNLCR [C2I] is lower in protein stability index: 1.96 for the first, 1.56 for the second.

Compared with IKPICLEMFTKPVVILPCQHNLCR [C2K], ILPICLEMFTKPVVILPCQHNLCR [C2L] is lower in protein stability index: 2.15 for the first, 2.04 for the second.

Compared with IMPICLEMFTKPVVILPCQHNLCR [C2M], INPICLEMFTKPVVILPCQHNLCR [C2N] is higher in protein stability index: 1.67 for the first, 1.78 for the second.

First: IPPICLEMFTKPVVILPCQHNLCR [C2P]
Second: IQPICLEMFTKPVVILPCQHNLCR [C2Q]
The protein stability index of the first is higher: 1.93 for the first, 1.73 for the second.

Going from IRPICLEMFTKPVVILPCQHNLCR [C2R] to ISPICLEMFTKPVVILPCQHNLCR [C2S], the protein stability index rises from 2.03 to 2.55.

First: ITPICLEMFTKPVVILPCQHNLCR [C2T]
Second: IVPICLEMFTKPVVILPCQHNLCR [C2V]
The protein stability index of the first is lower: 1.6 for the first, 2.11 for the second.

First: IWPICLEMFTKPVVILPCQHNLCR [C2W]
Second: IYPICLEMFTKPVVILPCQHNLCR [C2Y]
The protein stability index of the first is lower: 1.22 for the first, 2.49 for the second.

First: ICAICLEMFTKPVVILPCQHNLCR [P3A]
Second: ICCICLEMFTKPVVILPCQHNLCR [P3C]
The protein stability index of the first is lower: 1.27 for the first, 1.63 for the second.

First: ICDICLEMFTKPVVILPCQHNLCR [P3D]
Second: ICEICLEMFTKPVVILPCQHNLCR [P3E]
The protein stability index of the first is higher: 2.53 for the first, 2.21 for the second.

Compared with ICFICLEMFTKPVVILPCQHNLCR [P3F], ICGICLEMFTKPVVILPCQHNLCR [P3G] is lower in protein stability index: 1.6 for the first, 1.26 for the second.

First: ICHICLEMFTKPVVILPCQHNLCR [P3H]
Second: ICIICLEMFTKPVVILPCQHNLCR [P3I]
The protein stability index of the first is lower: 2.35 for the first, 3.07 for the second.

Going from ICKICLEMFTKPVVILPCQHNLCR [P3K] to ICLICLEMFTKPVVILPCQHNLCR [P3L], the protein stability index rises from 1.66 to 2.17.

Going from ICMICLEMFTKPVVILPCQHNLCR [P3M] to ICNICLEMFTKPVVILPCQHNLCR [P3N], the protein stability index rises from 2.07 to 2.13.

Going from ICQICLEMFTKPVVILPCQHNLCR [P3Q] to ICRICLEMFTKPVVILPCQHNLCR [P3R], the protein stability index rises from 1.2 to 1.27.

Compared with ICSICLEMFTKPVVILPCQHNLCR [P3S], ICTICLEMFTKPVVILPCQHNLCR [P3T] is higher in protein stability index: 1.75 for the first, 2.45 for the second.

First: ICVICLEMFTKPVVILPCQHNLCR [P3V]
Second: ICWICLEMFTKPVVILPCQHNLCR [P3W]
The protein stability index of the first is higher: 2.21 for the first, 1.9 for the second.

First: ICYICLEMFTKPVVILPCQHNLCR [P3Y]
Second: ICPACLEMFTKPVVILPCQHNLCR [I4A]
The protein stability index of the first is lower: 1.27 for the first, 2.07 for the second.

Going from ICPCCLEMFTKPVVILPCQHNLCR [I4C] to ICPDCLEMFTKPVVILPCQHNLCR [I4D], the protein stability index rises from 1.83 to 2.49.

Going from ICPECLEMFTKPVVILPCQHNLCR [I4E] to ICPFCLEMFTKPVVILPCQHNLCR [I4F], the protein stability index rises from 2.33 to 2.67.

Going from ICPGCLEMFTKPVVILPCQHNLCR [I4G] to ICPHCLEMFTKPVVILPCQHNLCR [I4H], the protein stability index rises from 2.03 to 2.26.

First: ICPKCLEMFTKPVVILPCQHNLCR [I4K]
Second: ICPLCLEMFTKPVVILPCQHNLCR [I4L]
The protein stability index of the first is higher: 2.74 for the first, 1.78 for the second.

Compared with ICPMCLEMFTKPVVILPCQHNLCR [I4M], ICPNCLEMFTKPVVILPCQHNLCR [I4N] is higher in protein stability index: 1.86 for the first, 2.25 for the second.

Compared with ICPPCLEMFTKPVVILPCQHNLCR [I4P], ICPQCLEMFTKPVVILPCQHNLCR [I4Q] is higher in protein stability index: 1.94 for the first, 3.02 for the second.

First: ICPRCLEMFTKPVVILPCQHNLCR [I4R]
Second: ICPSCLEMFTKPVVILPCQHNLCR [I4S]
The protein stability index of the first is higher: 2.87 for the first, 2.72 for the second.

Going from ICPTCLEMFTKPVVILPCQHNLCR [I4T] to ICPVCLEMFTKPVVILPCQHNLCR [I4V], the protein stability index rises from 2.31 to 2.51.
